From PMC13397619

B1: NLV2 TCR alpha chain (CDR3α only) (parent)
chain: AGPMKTSYDKVI
partner: MLVPMVATV

Variants of: B1
Assay: T-Switch: Jurkat TCRβ−/− cells expressing a CDR3 saturation-mutagenesis library, stained with two peptide-HLA-A*02:01 tetramers (original and novel peptide) plus anti-CD3, FACS-sorted into four gates, gDNA sequenced
Settings: with HLA-A*02:01 with peptide … (NLV 3-1, the novel peptide), tetramers 1 µg/mL, 30 min on ice, SP, DP and SW gates expanded about 10 days between rounds ('two to three rounds of selection' in the Methods), gate SW: higher = more of the variant in the gate that binds the novel peptide and not the original one = switched binding. Fold enrichment of the CDR3 variant in one FACS gate of a two-tetramer stain, unresolved parent, parent is a CDR3 fragment, scale: fold enrichment, numbering: sequential-on-construct, sequence starts at 1

Point of comparison: […] (CDR3 as printed); S7L derived by comparing it with the table's wild-type CDR3 AGPMKTSYDKVI, enrichment 0. Against it:
- […] (CDR3 as printed); D9R derived by comparing it with the table's wild-type CDR3 AGPMKTSYDKVI — the same, 0
- […] (CDR3 as printed); A1C derived by comparing it with the table's wild-type CDR3 AGPMKTSYDKVI — the same, 0
- […] (CDR3 as printed); I12E derived by comparing it with the table's wild-type CDR3 AGPMKTSYDKVI — the same, 0
- […] (CDR3 as printed); V11G derived by comparing it with the table's wild-type CDR3 AGPMKTSYDKVI — the same, 0
- […] (CDR3 as printed); D9I derived by comparing it with the table's wild-type CDR3 AGPMKTSYDKVI — the same, 0
- […] (CDR3 as printed); I12H derived by comparing it with the table's wild-type CDR3 AGPMKTSYDKVI — the same, 0
- […] (CDR3 as printed); I12C derived by comparing it with the table's wild-type CDR3 AGPMKTSYDKVI — the same, 0
- […] (CDR3 as printed); G2A derived by comparing it with the table's wild-type CDR3 AGPMKTSYDKVI — the same, 0
- […] (CDR3 as printed); D9Y derived by comparing it with the table's wild-type CDR3 AGPMKTSYDKVI — the same, 0
- […] (CDR3 as printed); Y8R derived by comparing it with the table's wild-type CDR3 AGPMKTSYDKVI — the same, 0
- […] (CDR3 as printed); Y8W derived by comparing it with the table's wild-type CDR3 AGPMKTSYDKVI — the same, 0
- […] (CDR3 as printed); T6C derived by comparing it with the table's wild-type CDR3 AGPMKTSYDKVI — the same, 0
- […] (CDR3 as printed); G2K derived by comparing it with the table's wild-type CDR3 AGPMKTSYDKVI — the same, 0
- […] (CDR3 as printed); P3C derived by comparing it with the table's wild-type CDR3 AGPMKTSYDKVI — the same, 0
- […] (CDR3 as printed); P3K derived by comparing it with the table's wild-type CDR3 AGPMKTSYDKVI — the same, 0
- […] (CDR3 as printed); V11I derived by comparing it with the table's wild-type CDR3 AGPMKTSYDKVI — the same, 0
- […] (CDR3 as printed); K10M derived by comparing it with the table's wild-type CDR3 AGPMKTSYDKVI — the same, 0
- […] (CDR3 as printed); Y8M derived by comparing it with the table's wild-type CDR3 AGPMKTSYDKVI — the same, 0
- […] (CDR3 as printed); S7W derived by comparing it with the table's wild-type CDR3 AGPMKTSYDKVI — the same, 0
- […] (CDR3 as printed); V11W derived by comparing it with the table's wild-type CDR3 AGPMKTSYDKVI — the same, 0
- […] (CDR3 as printed); I12S derived by comparing it with the table's wild-type CDR3 AGPMKTSYDKVI — the same, 0
- […] (CDR3 as printed); M4S derived by comparing it with the table's wild-type CDR3 AGPMKTSYDKVI — the same, 0
- […] (CDR3 as printed); A1M derived by comparing it with the table's wild-type CDR3 AGPMKTSYDKVI — the same, 0
- […] (CDR3 as printed); K5R derived by comparing it with the table's wild-type CDR3 AGPMKTSYDKVI — the same, 0
- […] (CDR3 as printed); Y8V derived by comparing it with the table's wild-type CDR3 AGPMKTSYDKVI — the same, 0
- […] (CDR3 as printed); T6V derived by comparing it with the table's wild-type CDR3 AGPMKTSYDKVI — the same, 0
- […] (CDR3 as printed); I12T derived by comparing it with the table's wild-type CDR3 AGPMKTSYDKVI — the same, 0
- […] (CDR3 as printed); M4Y derived by comparing it with the table's wild-type CDR3 AGPMKTSYDKVI — the same, 0
- […] (CDR3 as printed); K5A derived by comparing it with the table's wild-type CDR3 AGPMKTSYDKVI — the same, 0
- […] (CDR3 as printed); M4C derived by comparing it with the table's wild-type CDR3 AGPMKTSYDKVI — the same, 0
- […] (CDR3 as printed); G2I derived by comparing it with the table's wild-type CDR3 AGPMKTSYDKVI — the same, 0
- […] (CDR3 as printed); Y8A derived by comparing it with the table's wild-type CDR3 AGPMKTSYDKVI — higher, 77.9
- […] (CDR3 as printed); D9G derived by comparing it with the table's wild-type CDR3 AGPMKTSYDKVI — the same, 0
- […] (CDR3 as printed); D9A derived by comparing it with the table's wild-type CDR3 AGPMKTSYDKVI — the same, 0
- […] (CDR3 as printed); M4V derived by comparing it with the table's wild-type CDR3 AGPMKTSYDKVI — the same, 0
- […] (CDR3 as printed); Y8I derived by comparing it with the table's wild-type CDR3 AGPMKTSYDKVI — the same, 0
- […] (CDR3 as printed); S7V derived by comparing it with the table's wild-type CDR3 AGPMKTSYDKVI — the same, 0
- […] (CDR3 as printed); T6Y derived by comparing it with the table's wild-type CDR3 AGPMKTSYDKVI — the same, 0
- […] (CDR3 as printed); T6P derived by comparing it with the table's wild-type CDR3 AGPMKTSYDKVI — the same, 0
- […] (CDR3 as printed); K5G derived by comparing it with the table's wild-type CDR3 AGPMKTSYDKVI — the same, 0
- […] (CDR3 as printed); I12P derived by comparing it with the table's wild-type CDR3 AGPMKTSYDKVI — the same, 0
- […] (CDR3 as printed); D9T derived by comparing it with the table's wild-type CDR3 AGPMKTSYDKVI — the same, 0
- […] (CDR3 as printed); A1D derived by comparing it with the table's wild-type CDR3 AGPMKTSYDKVI — the same, 0
- […] (CDR3 as printed); D9N derived by comparing it with the table's wild-type CDR3 AGPMKTSYDKVI — the same, 0
- […] (CDR3 as printed); A1I derived by comparing it with the table's wild-type CDR3 AGPMKTSYDKVI — the same, 0
- […] (CDR3 as printed); S7E derived by comparing it with the table's wild-type CDR3 AGPMKTSYDKVI — the same, 0
- […] (CDR3 as printed); G2V derived by comparing it with the table's wild-type CDR3 AGPMKTSYDKVI — the same, 0
- […] (CDR3 as printed); G2W derived by comparing it with the table's wild-type CDR3 AGPMKTSYDKVI — the same, 0
- […] (CDR3 as printed); M4L derived by comparing it with the table's wild-type CDR3 AGPMKTSYDKVI — the same, 0
- […] (CDR3 as printed); I12W derived by comparing it with the table's wild-type CDR3 AGPMKTSYDKVI — the same, 0
- […] (CDR3 as printed); D9Q derived by comparing it with the table's wild-type CDR3 AGPMKTSYDKVI — the same, 0
- […] (CDR3 as printed); V11A derived by comparing it with the table's wild-type CDR3 AGPMKTSYDKVI — the same, 0
- […] (CDR3 as printed); Y8L derived by comparing it with the table's wild-type CDR3 AGPMKTSYDKVI — the same, 0
- […] (CDR3 as printed); Y8D derived by comparing it with the table's wild-type CDR3 AGPMKTSYDKVI — higher, 0.474
- […] (CDR3 as printed); I12G derived by comparing it with the table's wild-type CDR3 AGPMKTSYDKVI — the same, 0
- […] (CDR3 as printed); M4P derived by comparing it with the table's wild-type CDR3 AGPMKTSYDKVI — the same, 0
- […] (CDR3 as printed); P3E derived by comparing it with the table's wild-type CDR3 AGPMKTSYDKVI — the same, 0
- […] (CDR3 as printed); M4E derived by comparing it with the table's wild-type CDR3 AGPMKTSYDKVI — the same, 0
- […] (CDR3 as printed); T6L derived by comparing it with the table's wild-type CDR3 AGPMKTSYDKVI — the same, 0
- […] (CDR3 as printed); Y8Q derived by comparing it with the table's wild-type CDR3 AGPMKTSYDKVI — higher, 27.8
- […] (CDR3 as printed); K10Q derived by comparing it with the table's wild-type CDR3 AGPMKTSYDKVI — the same, 0
- […] (CDR3 as printed); A1S derived by comparing it with the table's wild-type CDR3 AGPMKTSYDKVI — the same, 0
- […] (CDR3 as printed); P3W derived by comparing it with the table's wild-type CDR3 AGPMKTSYDKVI — the same, 0
- […] (CDR3 as printed); K5I derived by comparing it with the table's wild-type CDR3 AGPMKTSYDKVI — the same, 0
- […] (CDR3 as printed); Y8P derived by comparing it with the table's wild-type CDR3 AGPMKTSYDKVI — the same, 0
- […] (CDR3 as printed); A1Q derived by comparing it with the table's wild-type CDR3 AGPMKTSYDKVI — the same, 0
- […] (CDR3 as printed); S7N derived by comparing it with the table's wild-type CDR3 AGPMKTSYDKVI — the same, 0
- […] (CDR3 as printed); D9M derived by comparing it with the table's wild-type CDR3 AGPMKTSYDKVI — the same, 0
